Results reported in patent US20200165335A1 (Seagen, published 2020).
Changes are numbered by the printed parent chain.

T1: human LIV-1 (human, UniProt Q13433 29-755)
T1 construct: also called hLIV-1; Q13433
T1 sequence: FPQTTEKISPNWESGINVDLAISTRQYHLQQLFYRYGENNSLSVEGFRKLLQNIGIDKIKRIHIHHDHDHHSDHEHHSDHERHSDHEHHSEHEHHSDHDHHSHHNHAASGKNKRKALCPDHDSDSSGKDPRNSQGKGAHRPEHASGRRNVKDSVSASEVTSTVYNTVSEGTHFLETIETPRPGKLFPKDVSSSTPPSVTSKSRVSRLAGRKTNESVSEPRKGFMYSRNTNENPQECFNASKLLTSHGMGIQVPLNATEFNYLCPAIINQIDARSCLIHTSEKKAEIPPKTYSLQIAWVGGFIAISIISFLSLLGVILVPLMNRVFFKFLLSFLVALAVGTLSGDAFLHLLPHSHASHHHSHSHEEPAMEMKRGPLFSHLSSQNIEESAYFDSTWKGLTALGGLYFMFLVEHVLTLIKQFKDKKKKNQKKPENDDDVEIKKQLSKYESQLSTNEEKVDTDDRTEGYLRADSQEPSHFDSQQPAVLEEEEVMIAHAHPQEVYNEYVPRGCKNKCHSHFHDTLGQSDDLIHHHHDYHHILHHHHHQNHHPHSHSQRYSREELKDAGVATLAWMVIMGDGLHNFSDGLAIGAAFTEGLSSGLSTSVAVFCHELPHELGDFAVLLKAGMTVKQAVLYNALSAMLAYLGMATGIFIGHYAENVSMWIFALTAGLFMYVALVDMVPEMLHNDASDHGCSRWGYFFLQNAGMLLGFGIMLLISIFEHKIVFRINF

B1: humanized BR2-22a antibody HBLB (antibody, V domains shown)
VH: QVQLVQSGAEVKKPGASVKVSCKASGYTIEDYYMHWVRQAPGQGLEWMGWIDPENGDTEYGPKFQGRVTMTRDTSINTAYMELSRLRSDDTAVYYCARHNAHYGTWFAYWGQGTLVTVSS
VL: DVVMTQSPLSLPVTLGQPASISCRSSQSLLHSSGNTYLEWYQQRPGQSPRRLIYKISTRFSGVPDRFSGSGSGTDFTLKISRVEAEDVGVYYCFQGSHVPYTFGGGTKVEIKR
notes: Not the same molecule as HBLB of the BR2-14a series (hLIV14); also called hLIV-22 HB + hLIV-22 LB
B2: humanized BR2-22a antibody HBLF (antibody, V domains shown)
VH: B1 VH
VL: B1 VL with Q42L, R50K, R51P
notes: also called hLIV-22 HB + hLIV-22 LF
B3: humanized BR2-22a antibody HCLD (antibody, V domains shown)
VH: B1 VH with I29F, E30T, R67K, V68A, R72A, N77S
VL: B1 VL with Y41F, R50K
notes: also called hLIV-22 HC + hLIV-22 LD
B4: humanized BR2-22a antibody HELA (antibody, V domains shown)
VH: B1 VH with Y27L, T28N, M48I, R67K, V68A, R72A, A97T, R98V
VL: B1 VL with Y41F
notes: also called hLIV-22 HE + hLIV-22 LA
B5: humanized BR2-22a antibody HALF (antibody, V domains shown)
VH: B1 VH with I29F, E30T, N77S
VL: B1 VL with Q42L, R50K, R51P
notes: also called hLIV-22 HA + hLIV-22 LF
B6: humanized BR2-22a antibody HDLF (antibody, V domains shown)
VH: B1 VH with Y27L, I29F, E30T, N77S, A97T, R98V
VL: B1 VL with Q42L, R50K, R51P
notes: also called hLIV-22 HD + hLIV-22 LF
B7: humanized BR2-22a antibody HCLC (antibody, V domains shown)
VH: B1 VH with I29F, E30T, R67K, V68A, R72A, N77S
VL: B1 VL with Y41F, Q42L
notes: also called hLIV-22 HC + hLIV-22 LC
B8: humanized BR2-14a antibody HALA (antibody, V domains shown)
VH: B1 VH with I29F, E30T, G61A, K63T, N77S, N100D
VL: B1 VL with L29I, L30I, H31R, S32N, S33D, Y41F, K55R, I56V, T58N
notes: also called hLIV-1 HA + hLIV-1 LA
B9: humanized BR2-14a antibody HCLB (antibody, V domains shown)
VH: B1 VH with I29F, E30T, G61A, K63T, R67K, V68A, R72A, N77S, N100D
VL: B1 VL with L29I, L30I, H31R, S32N, S33D, K55R, I56V, T58N
notes: also called hLIV-1 HC + hLIV-1 LB
B10: humanized BR2-14a antibody HBLF (antibody, V domains shown)
VH: B1 VH with G61A, K63T, N100D
VL: DVVMTQSPLSLPVTLGQPASISCRSSQSIIRNDGNTYLEWYLQKPGQSPKLLIYRVSNRFSGVPDRFSGSGSGTDFTLKISRVEAEDVGVYYCFQGSHVPYTFGGGTKVEIKR
notes: also called hLIV-1 HB + hLIV-1 LF
B11: humanized BR2-14a antibody HALF (antibody, V domains shown)
VH: B1 VH with I29F, E30T, G61A, K63T, N77S, N100D
VL: B10 VL
notes: also called hLIV-1 HA + hLIV-1 LF
B12: humanized BR2-14a antibody HCLD (antibody, V domains shown)
VH: B1 VH with I29F, E30T, G61A, K63T, R67K, V68A, R72A, N77S, N100D
VL: B10 VL with Y41F, L42Q, K44R, L51R
notes: also called hLIV-1 HC + hLIV-1 LD
B13: humanized BR2-14a antibody HELD (antibody, V domains shown)
VH: QVQLVQSGAEVKKPGASVKVSCKASGFNIEDYYMHWVRQAPGQGLEWIGWIDPENGDTEYAPTFQGKATMTADTSINTAYMELSRLRSDDTAVYYCNVHDAHYGTWFAYWGQGTLVTVSS
VL: B10 VL with Y41F, L42Q, K44R, L51R
notes: also called hLIV-1 HE + hLIV-1 LD
B14: humanized BR2-14a antibody HDLE (antibody, V domains shown)
VH: B13 VH with N28T, I29F, E30T, I48M, K67R, A68V, A72R, N77S
VL: B10 VL with Y41F, L42Q, K44R, K50R
notes: also called hLIV-1 HD + hLIV-1 LE
B15: humanized BR2-14a antibody HBLA (antibody, V domains shown)
VH: B1 VH with G61A, K63T, N100D
VL: B10 VL with Y41F, L42Q, K44R, K50R, L51R
notes: also called hLIV-1 HB + hLIV-1 LA
B16: humanized BR2-14a antibody HCLA (antibody, V domains shown)
VH: B13 VH with F27Y, N28T, I29F, E30T, I48M, N77S, N97A, V98R
VL: B10 VL with Y41F, L42Q, K44R, K50R, L51R
notes: also called hLIV-1 HC + hLIV-1 LA
B17: humanized BR2-14a antibody HDLA (antibody, V domains shown)
VH: B13 VH with N28T, I29F, E30T, I48M, K67R, A68V, A72R, N77S
VL: B10 VL with Y41F, L42Q, K44R, K50R, L51R
notes: also called hLIV-1 HD + hLIV-1 LA
B18: humanized BR2-14a antibody HBLE (antibody, V domains shown)
VH: B1 VH with G61A, K63T, N100D
VL: B10 VL with Y41F, L42Q, K44R, K50R
notes: also called hLIV-1 HB + hLIV-1 LE
B19: humanized BR2-14a antibody HBLD (antibody, V domains shown)
VH: B1 VH with G61A, K63T, N100D
VL: B10 VL with Y41F, L42Q, K44R, L51R
notes: also called hLIV-1 HB + hLIV-1 LD
B20: humanized BR2-14a antibody HDLC (antibody, V domains shown)
VH: B13 VH with N28T, I29F, E30T, I48M, K67R, A68V, A72R, N77S
VL: B10 VL with Y41F, K44R, K50R, L51R
notes: also called hLIV-1 HD + hLIV-1 LC
B21: humanized BR2-14a antibody HCLC (antibody, V domains shown)
VH: B13 VH with F27Y, N28T, I29F, E30T, I48M, N77S, N97A, V98R
VL: B10 VL with Y41F, K44R, K50R, L51R
notes: also called hLIV-1 HC + hLIV-1 LC
B22: humanized BR2-14a antibody HDLD (antibody, V domains shown)
VH: B13 VH with N28T, I29F, E30T, I48M, K67R, A68V, A72R, N77S
VL: B10 VL with Y41F, L42Q, K44R, L51R
notes: also called hLIV-1 HD + hLIV-1 LD
B23: humanized BR2-14a antibody HELF (antibody, V domains shown)
VH: B13 VH
VL: B10 VL
notes: also called hLIV-1 HE + hLIV-1 LF
B24: humanized BR2-14a antibody HELC (antibody, V domains shown)
VH: B13 VH
VL: B10 VL with Y41F, K44R, K50R, L51R
notes: also called hLIV-1 HE + hLIV-1 LC
B25: humanized BR2-14a antibody HBLC (antibody, V domains shown)
VH: B1 VH with G61A, K63T, N100D
VL: B10 VL with Y41F, K44R, K50R, L51R
notes: also called hLIV-1 HB + hLIV-1 LC
B26: humanized BR2-14a antibody HDLF (antibody, V domains shown)
VH: B13 VH with N28T, I29F, E30T, I48M, K67R, A68V, A72R, N77S
VL: B10 VL
notes: also called hLIV-1 HD + hLIV-1 LF
B27: humanized BR2-14a antibody HELA (antibody, V domains shown)
VH: B13 VH
VL: B10 VL with Y41F, L42Q, K44R, K50R, L51R
notes: also called hLIV-1 HE + hLIV-1 LA
B28: humanized BR2-14a antibody HDLB (antibody, V domains shown)
VH: B13 VH with N28T, I29F, E30T, I48M, K67R, A68V, A72R, N77S
VL: B10 VL with L42Q, K44R, K50R, L51R
notes: also called hLIV-1 HD + hLIV-1 LB
B29: humanized BR2-14a antibody HELB (antibody, V domains shown)
VH: B13 VH
VL: B10 VL with L42Q, K44R, K50R, L51R
notes: also called hLIV-1 HE + hLIV-1 LB
B30: humanized BR2-14a antibody HCLE (antibody, V domains shown)
VH: B13 VH with F27Y, N28T, I29F, E30T, I48M, N77S, N97A, V98R
VL: B10 VL with Y41F, L42Q, K44R, K50R
notes: also called hLIV-1 HC + hLIV-1 LE
B31: humanized BR2-14a antibody HCLF (antibody, V domains shown)
VH: B13 VH with F27Y, N28T, I29F, E30T, I48M, N77S, N97A, V98R
VL: B10 VL
notes: also called hLIV-1 HC + hLIV-1 LF
B32: humanized BR2-14a antibody HALB (antibody, V domains shown)
VH: B1 VH with I29F, E30T, G61A, K63T, N77S, N100D
VL: B10 VL with L42Q, K44R, K50R, L51R
notes: also called hLIV-1 HA + hLIV-1 LB
B33: humanized BR2-14a antibody HALE (antibody, V domains shown)
VH: B1 VH with I29F, E30T, G61A, K63T, N77S, N100D
VL: B10 VL with Y41F, L42Q, K44R, K50R
notes: also called hLIV-1 HA + hLIV-1 LE
B34: humanized BR2-14a antibody HALC (antibody, V domains shown)
VH: B1 VH with I29F, E30T, G61A, K63T, N77S, N100D
VL: B10 VL with Y41F, K44R, K50R, L51R
notes: also called hLIV-1 HA + hLIV-1 LC
B35: humanized BR2-14a antibody HALD (antibody, V domains shown)
VH: B1 VH with I29F, E30T, G61A, K63T, N77S, N100D
VL: B10 VL with Y41F, L42Q, K44R, L51R
notes: also called hLIV-1 HA + hLIV-1 LD

What follows are binders tested against T1, human LIV-1 (assay: competition flow cytometry, CHO cells expressing recombinant LIV-1, vs 5 nM AF647-labelled BR2-22a).
Experimental: (§1) 1×10⁵ CHO cells expressing recombinant LIV-1 in PBS were aliquoted into each well of a 96-well v-bottom plates on ice. […] Cells were pelleted and washed 3 times with PBS. The cells were then pelleted and resuspended in 125 μL of PBS/BSA. Fluorescence was analyzed by flow cytometery, using percent of saturated fluorescent signal to determine percent labeled humanized BR2-22a antibody bound and to subsequently extrapolate the EC50 by fitting the data to a sigmoidal dose-response curve with variable slope.
All permutations of these five heavy chains and six light chains were then tested in a competition assay compared with BR2-22a (see FIG. 17).

Binder | EC50 [µg/mL] | binding result
B1 | 4.9 | –
B2 | 6.5 | –
B3 | – | no binding (tested: 0.038 nM to 600 nM tested)
B4 | 68.2 | –
B5 | 33.2 | –
B6 | 14.4 | –
B7 | – | no binding (tested: 0.038 nM to 600 nM tested)

The binders below were run against T1, human LIV-1 (assay: competition flow cytometry, CHO cells expressing human LIV-1, vs 5 nM AF647-labelled BR2-14a).
Experimental: as §1, with “recombinant human” for “recombinant”, “in PBS/BSA” for “in PBS”, “with PBS/BSA.” for “with PBS.”, “were” for “were then”, “flow cytometry,” for “flow cytometery,”, “labeled murine LIV-1 mAb” for “labeled humanized BR2-22a antibody”

Binder | binding result | EC50 [µg/mL]
B8 | no binding (tested: 0.038 nM to 600 nM tested) | –
B9 | – | 1.8
B10 | – | 0.7
B11 | – | 8.8
B12 | – | 66.6
B13 | – | 24.2
B14 | no binding (tested: 0.038 nM to 600 nM tested) | –
B15 | – | 19.9
B16 | no binding (tested: 0.038 nM to 600 nM tested) | –
B17 | no binding (tested: 0.038 nM to 600 nM tested) | –
B18 | no binding (tested: 0.038 nM to 600 nM tested) | –
B19 | – | 17.4
B20 | no binding (tested: 0.038 nM to 600 nM tested) | –
B21 | no binding (tested: 0.038 nM to 600 nM tested) | –
B22 | – | 67.9
B23 | – | 1.5
B24 | no binding (tested: 0.038 nM to 600 nM tested) | –
B25 | – | 44
B26 | – | 1.4
B27 | – | 12.5
B28 | – | 2.3
B29 | – | 173
B30 | no binding (tested: 0.038 nM to 600 nM tested) | –
B31 | – | 1.3
B32 | – | 37.8
B33 | no binding (tested: 0.038 nM to 600 nM tested) | –
B34 | – | 25.5
B35 | – | 4.9
